Results: the RNAGym collection of RNA variant scans (doi:10.1021/acssynbio.7b00057)

B1: Pistol ribozyme (parent)
chain: GGGUCGUUGUUCCAUAAUCGCGUGGAUAUGGCACGCAAGUUUCUACCGGGCACCGUAAAUGUCCGACUGGAGCCGUUCGGGCGGCUAUAAACAGACCUCAGGCCCGAAGCGUGGCGGCACCUGCCGCCGGUGGUAAAAAAGAUCGGAAGAGCACACGUCU

Variants of: B1
Test: aptazyme ON/OFF ratio, guanine; higher = stronger switching; co-transcriptional cleavage with and without guanine

Row | Variant | aptazyme ON/OFF ratio
1 | U7C U8A G9C U11C C12G C13G | 1.12
2 | U7G G9C U10G U11A C12U C13A | 1.17
3 | U8C G9A U10C C13U | 1.66
4 | U7G U8G G9A U10A U11C C12U C13U | 1.15
5 | U7G U8G G9C U10G C12A C13U | 1.14
6 | U7C U8G G9U U10A U11A C12U C13A | 1.22
7 | U8C G9U U10C U11A C12G C13U | 1.08
8 | U7A U8A G9A U10G U11C C12G C13U | 1.31
9 | U8C G9U U10A U11C C13G | 1.06
10 | U7C G9U U11A C12G C13G | 1.24
11 | U7G U8C U11G C13G | 1.2
12 | U7G U10C U11C C12U | 1.12
13 | U7C U8G G9C U10G U11G C12A C13U | 1.14
14 | U7C U8G G9C U11A C12G C13A | 1.1
15 | U7A U8C G9U C12U C13G | 1.12
16 | U7C U8A G9U U10G U11A | 1.05
17 | U7C G9A U11G C12G C13U | 1.09
18 | U7A U8C U10G U11A C12A C13U | 1.32
19 | U7G U8G G9U U10C U11G C13A | 1.22
20 | U7G U8A G9U U10C U11C C12G | 1.08
21 | U7A U8G G9A C12U C13U | 1.04

Row | Variant | aptazyme ON/OFF ratio
22 | U8A G9U U10C U11G C12U | 1.18
23 | U7A U8C G9A U10G U11G C12G C13A | 1.42
24 | U7A U8A G9C U10G U11A C12A C13A | 1.17
25 | U7G U8C G9U U10C U11G C12G C13U | 1.08
26 | U7C U8A G9A U11A C12G C13A | 1.15
27 | U7G G9U U10A U11A C12A | 1.3
28 | U8C G9A U10G U11G C12U C13G | 1.1
29 | U7C U8G U11A C12U C13G | 1.09
30 | U7G U8C G9A U10A U11C C13G | 1.05
31 | U7G U8G G9A U10A C12U C13G | 1.15
32 | U7A U8C U10C U11G C13U | 1.23
33 | U7G U8C G9C U10C U11A | 1.39
34 | U7C G9U C12G C13A | 1.11
35 | U7A U10C U11G | 1.25
36 | U10A U11G C12G | 1.55
37 | U7C U8G U11G C12G | 1.1
38 | U7G U8A G9U U10G U11C C12U C13A | 1.07
39 | G9C U10C U11A C12A C13G | 1.07
40 | U7A U8G G9U U11C C12A C13G | 1.12
41 | G9U C13U | 2.07
42 | U8C C12A | 1.52

Row | Variant | aptazyme ON/OFF ratio
43 | G9A U10C C13A | 1.08
44 | U7G U8C G9U U10A U11G C12G C13G | 1.13
45 | U8G G9C U10G C12U C13G | 1.11
46 | U7C U8G U10C U11A C12G | 1.2
47 | U7C G9U U11G C12G C13G | 1.17
48 | U7A U8A G9U | 2.12
49 | U8G U10C U11C C12A C13U | 1.05
50 | U7A U8C G9A | 1.74
51 | U8C G9U U10A C12G | 1.27
52 | U7C U8C G9A U10C U11A C12G C13A | 1.26
53 | U8C G9C U10G C13A | 1.1
54 | U7G U8G G9A U10G U11G C12G C13U | 1.11
55 | U7G G9A | 4.35
56 | U7G U8A G9U U10A U11C C12U | 1.03
57 | U7G U8C G9A U10G U11G C12G | 1.27
58 | U7C G9U U10A U11A C12U | 1.36
59 | U7C G9U U11A C12G C13A | 1.2
60 | U7A G9A U10G U11G C13G | 1.25
61 | U7C U8C G9U U11A C13A | 1.17
62 | U7A U8C G9A U10A U11A C12A | 1.31
63 | U8G G9U U10G U11A C12A C13A | 1.04

Row | Variant | aptazyme ON/OFF ratio
64 | U7C G9U U11C C12U C13A | 1.12
65 | U7G U8C G9A U10G U11C C12U C13A | 1.12
66 | U7G U8G G9U U10C C12A | 1.38
67 | U8A U11G C12U C13A | 1.14
68 | G9A U10G U11C C12G C13A | 1.11
69 | U7C U8C G9U U10C U11C C13G | 1.1
70 | U7G U8C G9A U10C U11G C12G C13G | 1.08
71 | U7A U8A G9C U10A U11G C12G C13U | 1.14
72 | U7A G9A C12U | 2.04
73 | U7C U8G G9U U10C C12G C13U | 1.25
74 | U7C U8G U10A U11C C12U C13A | 1.1
75 | U7C U8A G9C U10C U11C C12A | 1.06
76 | U7C U8A G9C U10G U11G C13G | 1.11
77 | U7A G9A U10A C13U | 1.29
78 | U7A U8C G9U U10G U11G C12G | 1.22
79 | U7G U8A G9A U10A U11C C12U C13G | 1.1
80 | U10C U11G C12U C13A | 1.36
81 | U7C U8C G9U U10G U11C C12U | 1.25
82 | U7G U8C G9A U10G U11A | 1.07
83 | U7C U8A G9A U10C C13G | 1.05
